Measured values: the DeepSol protein solubility set

Assay: soluble on expression in E. coli; label from the status in PepcDB or PDB records

Question: For “IFNVPFGLNINLLPQYHMYTTQEAKDKIYYYSGNKVGFDIGASAQIGYMWQVTDNFGISLLGELGYSFDSFNANFDTAKVENPNDITGQIDAPEGTQKLGSASFYTHNLKIGILPKFNIKAFSIGIGLGIIVPMAITQNWKDEAAKTLFKDASTKFMSSVGFYGKLTFDYSIFFTEKIAMNIGLYTGVDAIGSINTTINNTSLNQGAHSEAPLLSYDIGLQLGFRFGPKAFN”, which “soluble on expression in E. coli” value is on record?
Answer: not soluble

Question: Which “soluble on expression in E. coli” value does the source give for “IGVFLKDKQKVLVVEESEPFIEEQIRIEGNVYGKKTGHLPYGQVTSKDIDFALEHIEEEKVSRPADPGLIESRKKSRASICEDCPYLPLYNFLRISGVRVAGDMGCSVRSAPEPLSAVDVSFALGSAISVACGFERKGIAVIGDFALAHSGILGLLNAVSEGHEVLVLVLQNEVAAMTGGQKVPDLRKVIEAIVPDVSVFDMDGRKEKEQASGSELSDLITEKLALPGISVIFI” here?
Answer: not soluble

Question: For “IKLNTLNTMSMGVTMRYMSEKYFKMMCGVQMEINYSQRGWDEKIEDDSGNSYSRTMNYLEIPFMAHLAFGKDALNRGVKVFFNAGPQIGFFLGDNEKINWTTSTTRPEHGKEVENKFDYGITAGAGLEVSTGIGHFLLEGRYYMGLSDFYKNSKRDFFERSAHSFIGIRLSYLI”, which “soluble on expression in E. coli” value is on record?
Answer: not soluble

Question: With “ILDTKPIPTIVDATTLGISGNTSGDYWLPTTMSLYQKELTDQIVSLHYSDILRYFETSHYKEDVILESMKTMCLNGSLVATHPYLLIDHYMPKSLITRDVPAHLAENSGKFSVLRDLINLVQEYETETAIVCRPGRTMDLLEALLLGNKVHIKRYDGHSIKSAAAANDFSCTVHLFSSEGINFTKYPIKSKARFDMLICLDTTVDTSQKDIQYLLQYKRERKGLERYAPIVRLVAINSIDHCRLFFGKKFDKNSREYLENVTAAMVILRDRLGTLPPDLRPIYSQKLHYLVEWLENPTVPWPLPDIYPLKQYTSMDVERSLLTEVHFK” as the sequence, how does the “soluble on expression in E. coli” value read?
Answer: soluble

Question: For “ILGIKTLLAVYRLFGRKAFDLILKLVMRYYHFTGKSAREASEIYLQNLQRYAAQQNIALPKQLDSYHHLLSFGRTMLDKLAAWQGDFNVDNLTIHGQHHFEEMAQKKQGVLILGSHLGNIELCRALGRRHSHVKINALVFTQHAEQFNAVMKAVNPNSELNLIQVSSMGPDTAILLQQKIEQGEWVVIVGDRTSTSKENRVVWADFLGKPAPFPQGPFMLASVLKAPVYLLFGLRDDEANTPHFNVYFEHFSDQITLPRKERQQALEHVVQQYAHRLEHHTLQAPLQWYNFFNFWTLSNQPHDKQQ”, which “soluble on expression in E. coli” value is on record?
Answer: not soluble

Question: Which “soluble on expression in E. coli” value does the source give for “ILTENTPYFEQLSVPQRSVGRIIGRGGETIRSICKASGAKITCDKESEGTLLLSRLIKISGTQKEVAAAKHLILEKVSEDEELRKRIAHSA” here?
Answer: soluble

Question: With “INDWSYSIGANFSYVTTKIMDLKGGDTPGQSVGDPLWAYYGYVCDGIFQNEEEIKNHPTQSMGTPVPGDLKYRDLNGDKVVDSKDRQVLGSYFPKINFGLNLSVQYKDFDLSALLQGAADVKSAPVAEIRYAFYNGGKVTEQHLDRWTPENPNATYPRLSMSDSKNRVTSSFWMQDASYAKLRNLQVGYSLPKQLISKYGISRLRVYCSIDNLFMISGFDGVDPEAISGNYYPLTRNYSFGLNVTF” as the sequence, how does the “soluble on expression in E. coli” value read?
Answer: not soluble

Question: Which “soluble on expression in E. coli” value does the source give for “IPAGELQIIDKIDAAFKVAATAAATAPADDKFTVFEAAFNKAIKETTGGAYDTYKCIPSLEAAVKQAYAATVAAAPQVKYAVFEAALTKAITAMSEVQKVSQ” here?
Answer: soluble

Question: With “IPGPGFTAGAQGSCSLRCGAQDGLCSCHPTCSGLGTCCEDFLDYCLEILPSSGSMMGGKDFVVQHLKWTDP” as the sequence, how does the “soluble on expression in E. coli” value read?
Answer: soluble

Question: Which “soluble on expression in E. coli” value does the source give for “IQFTESCSMDQSAKEPLINYLDMEYFGTISIGSPPQNFTVIFDTGSSNLWVPSVYCTSPACKTHSRFQPSQSSTYSQPGQSFSIQYGTGSLSGIIGADQVSVEGLTVVGQQFGESVTEPGQTFVDAEFDGILGLGYPSLAVGGVTPVFDNMMAQNLVDLPMFSVYMSSNPEGGAGSELIFGGYDHSHFSGSLNWVPVTKQAYWQIALDNIQVGGTVMFCSEGCQAIVDTGTSLITGPSDKIKQLQNAIGAAPVDGEYAVECANLNVMPDVTFTINGVPYTLSPTAYTLLDFVDGMQFCSSGFQGLDIHPPAGPLWILGDVFIRQFYSVFDRGNNRVGLAPAVPWSHPQFEK” here?
Answer: soluble

Question: For “ISEFDYSARFVLSDGKRKILRYPNPTNSLSSDVYYNGQILGDIWGYKTVGIAQTQEEMNAHLANGGTPNWGTNWGAGDVMYANLDGKEGVNNGSNTLEDHGDLTIIGNNTPRYNFGLTLTGAWKGFDFSVFLQGVMKRDYWLDGPYFWGANGGLWQSTAFKEHMDYWRPEGDPLGANTNAYYPKPYFNTDKNQKVQSGYLQNAAYCRLKNAQIGYTLPKTWTRKAAMESVRVYVSGDNLVTFSGISGVFDPELLGSDWGDGKLYPLQRTISIGLNVNF”, which “soluble on expression in E. coli” value is on record?
Answer: not soluble

Question: With “ISISRADLAFDLFEVDCSEFVLEKKGRPTATKEFRSSTGTLETKYLGAPRSEKQVRLYNKKKEQLQNGTDKDKDFASQFKHWWRLEFQLRSRSIDEIFEVIDTIIFKPFNLKGLSIETQIYLTALIHDKNIWKKLHRNTRARYKKILETHQTSDTDYLGLLKDLLKHERPRLENQLAYYGGRIDKNSFQPFC” as the sequence, how does the “soluble on expression in E. coli” value read?
Answer: not soluble

Question: For “ITDHNTLSGVSKMVEACKINKRFLNNKCPQILAGIEISCSDKHHVVVILNNKDMDMMQKAEDWLTNYIISDDGTYLPSLLVIEAFVEIGAIAYIAHFNTSDLFKKPKFLSGLYIDKLFSTKKMEIIGLSNMDSKLAIEEKLSNYTKRKFHFILDEDSHTLEELCTKPFWIK”, which “soluble on expression in E. coli” value is on record?
Answer: not soluble

Question: Which “soluble on expression in E. coli” value does the source give for “KELKIILLTDMHVGSLLQKDFVDYIVEEVNQKEVDMVLIGGDLVDESIEKVKSFLLPLNNLKSTHGTFYVPGNHEYYHGIEPILSFLDTLNLTILGNECVHLGGINLCGVYDYFARKRQNFAPDIDKALKKRNESKPTILLAHQPKQIRSLKESHSVDLVLSGHTHAGQIFPFSLLVKLAQTYLHGLYKHSP” here?
Answer: not soluble

Question: Which “soluble on expression in E. coli” value does the source give for “KELWKLRKLRNHFSIQEEAELLVHSDSVGKGKVFCEKVAEESGVLAENPGFDRWQNSINPAHSDAEILDMYDSMVVSQQDKLATKVVSQHATES” here?
Answer: not soluble

Question: Which “soluble on expression in E. coli” value does the source give for “KFLHEISLVLQTSVDLDEVLSVVMTAITAGKGFGMNRAFLLLTDKERKHLRGYLGVGPRNYGEAWFIWDEISRDDFTLKEMAKNFYQTKFTSEKQKFHDILENLTIPLSEHDHILVRALREKKPLLVENAFHNPDCDYSLTQTLGVDTFLITPLVSRNRRIGVIISDNCVTHKPITPQDVQSLETFAFPVAFAIERASLYERLQEE” here?
Answer: not soluble

Question: Which “soluble on expression in E. coli” value does the source give for “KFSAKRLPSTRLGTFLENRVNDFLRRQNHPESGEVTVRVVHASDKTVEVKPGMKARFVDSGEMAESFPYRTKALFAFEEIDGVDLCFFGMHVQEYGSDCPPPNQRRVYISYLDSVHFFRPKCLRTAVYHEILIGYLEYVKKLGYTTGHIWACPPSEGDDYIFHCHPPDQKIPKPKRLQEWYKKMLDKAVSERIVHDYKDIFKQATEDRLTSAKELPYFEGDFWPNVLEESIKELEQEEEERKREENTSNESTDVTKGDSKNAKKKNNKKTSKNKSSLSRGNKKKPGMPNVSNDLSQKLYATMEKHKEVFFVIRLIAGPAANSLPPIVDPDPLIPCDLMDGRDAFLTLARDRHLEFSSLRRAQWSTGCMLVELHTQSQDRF” here?
Answer: soluble

Question: For “KGEITYLNQAWASITGFSISECMGTMYNDYFIKEKHVADHINTQIQNKASSGMFTAKYVTKNGTIFWGEVHYKLYYDRDDQFTGSLGTMSD”, which “soluble on expression in E. coli” value is on record?
Answer: not soluble

Question: Which “soluble on expression in E. coli” value does the source give for “KKDDFRNEFDHLLIEQANHAIEKGEHQLLYLQHQLDELNENKSKELQEKIIRELDVVCAMIEGAQGALERELKRTDLNILERFNYEEAQTLSKILLKDLKETEQKVKDIQTQ” here?
Answer: soluble

Question: With “KKTFLTVRGNLTFNKDKIIENDEPPVDYPWMETRGTNVNATWGFIADGLFTSQAEIEDHATQFGTVHVGDIKYRDLNGDGVIDNYDKTVIGRGDVPRIYYGFGADLQIGDFSISALFQGTGQADRYLDGICIKPFWDDEGRDNVFANIHDRWSPDDPTNQDVFYPRMYVGSDANTNNVQKSSWWVKDVSFLRLKQLNISYNIPKKLLDRCFLKSASVYLMGTNLLTFSNFKLWDPELNTSNGTAYPNVSSYSVGVKFSF” as the sequence, how does the “soluble on expression in E. coli” value read?
Answer: not soluble

Question: For “KKTVRRILGVVEIGGSGENITKTELFKYDGISDSVVKTGICMWEEDVCQIAGITRDELMDDRINRKKVLKYMVNNNINDIRKVGDVLKQYQENPENVLKNIL”, which “soluble on expression in E. coli” value is on record?
Answer: not soluble

Question: Which “soluble on expression in E. coli” value does the source give for “KLSPMIDLWDTLQSLLHVQELHVVAAHGEVKELLVRMSLNEATIPPEKVPIHAINLLLEDTVIPFIFTMEEERSISIPYTDSIDKYVYEPHTALLKAGAFKTVAYRLGLRKLHPNSHLYTSEAYESAFPGRTFVLEEIIPFSTSVLKQLRKVVPQASISCRNFPLSPIELRQRSKMADGGEKTLMGTTMADGKKVLLLLRKAE” here?
Answer: not soluble

Question: For “KNFNPPTRRNWESNYFGMPLQDLVTAEKPIPLFVEKCVEFIEDTGLCTEGLYRVSGNKTDQDNIQKQFDQDHNINLVSMEVTVNAVAGALKAFFADLPDPLIPYSLHPELLEAAKIPDKTERLHALKEIVKKFHPVNYDVFRYVITHLNRVSQQHKINLMTADNLSICFWPTLMRPDFENREFLSTTKIHQSVVETFIQQCQFFFYNGEIVE”, which “soluble on expression in E. coli” value is on record?
Answer: soluble

Question: For “KRLILLDYDGTLVPFQKRPEDASPTPQLLDTLQKLTADPLNHVVINSGRDHFTLEKWLGALPISFAAEHGAFYKENGVWHKNVHAQEWSPGLLSILKLFVSKTPRSHLEVKETALAWHYRETDAWLGRLRAQQLVNSLISICLKQNLQIMQGNKVIEIKSPEFTKGSEVNRLLLATRYDFILAMGDDTTDDDMFKALPVTAVTVKIGTASESARYNLPVQTDTLPFLQRLTDKSVVKAALKSGLKGQLSSAIDFLKRIINH”, which “soluble on expression in E. coli” value is on record?
Answer: not soluble

Question: Which “soluble on expression in E. coli” value does the source give for “KSITIQTPYLIPDQPIYESLTIALAAGVKVNIFIPDRPDHPFVYRATQYYAQEFIDFGANVYRYDGGFLHSKLLIIDDEIVSIGSANMDIRSFELSFEANAFIYSSYFAKKIEKQISIDISKSKLLSKKDFETQ” here?
Answer: not soluble

Question: For “KTFAALGSGVIGSGWIARALAHGLDVVAWDPAPGAEAALRARVANAWPALRKQGLAPGAAQERLRFVASIEECVGDADFIQESAPERLDLKLDLHARISAAARPDVLIGSSTSGLLPSEFYAEASHPERCLVGHPFNPVYLLPLVEVVGGERTAAEAVRAAMRVYESLGMRPLHVRKEVPGFIADRLLEALWREALHLVNDGVATTGEIDDAIRFGAGLRWSFMGTFLTYTLAGGNAGMRHFMAQFGPALQLPWTYLPAPELTEALIDRVVEGTAEQQGARSIAELERYRDDCLLAVLGAIRETKARHGFA”, which “soluble on expression in E. coli” value is on record?
Answer: not soluble

Question: With “KTISLYKTKIPQDKTENVDAFLVTDSELISKLEKAKNKKEETKASGKSASARVAVQATQKKQSNEKQIVGYTTTSALSEDGKHIFKLGKLNSENYERKIIVGATVETLEQSTTLQSEEAIVLAAPGKYKDSDQKRVMITQGPNLIGVHANTKENEETKKFVNW” as the sequence, how does the “soluble on expression in E. coli” value read?
Answer: not soluble

Question: Which “soluble on expression in E. coli” value does the source give for “KTNTATVKVLPISMSDEGDSFLVKDSLGENKIPKNPSKVVILDLGILDTFDALKLNDKVVGVPAKNLPKYLQQFKNKPSVGGVQQVDFEAINALKPDLIIISGRQSKFYDKLKEIAPTLFVGLDNANFLSSFENNVLSVAKLYGLEKEALEKISDIKNEIEKAKSIVDEDKKALIILTNSNKISAFGPQSRFGIIHDVLGINAVDENIKVGTHGKSINSEFILEKNPDYIFVVDRNVILGNKERAQGILDNALVAKTKAAQNKKIIYLDPEYWYLASGNGLESLKTMILEIKNAVK” here?
Answer: soluble

Question: Which “soluble on expression in E. coli” value does the source give for “KVNMDLRANLKQVKKEDTEKEKDLRDVGDWRKNIEEKSGMEGRKKMFEAGES” here?
Answer: soluble

Question: With “KVWAFDIQPQALNNTRCRLQEAGYSNVRLILDGHENLKQYIPKPLDAAIFNFGWLPGGDKSLTTRTETSIAALSATLSLLKENGMLIAVLYPGHENGKQEAEAIEQWAKNLPQEQFAVLRYGFTNRKNSPPYLLVFEKLRQK” as the sequence, how does the “soluble on expression in E. coli” value read?
Answer: not soluble
